Test results: patent publication US10005829B2, “Synthetic linear apelin mimetics for the treatment of heart failure” (priority 2012, dated 2018)
[ ]: non-standard residue; d: D form. pGlu = O=C1CC[C@@H](C(=O)O)N1; dNle = CCCC[C@@H](N)C(=O)O

T1: APJ receptor (human, UniProt P35414 1-380)
T1 sequence (looked up): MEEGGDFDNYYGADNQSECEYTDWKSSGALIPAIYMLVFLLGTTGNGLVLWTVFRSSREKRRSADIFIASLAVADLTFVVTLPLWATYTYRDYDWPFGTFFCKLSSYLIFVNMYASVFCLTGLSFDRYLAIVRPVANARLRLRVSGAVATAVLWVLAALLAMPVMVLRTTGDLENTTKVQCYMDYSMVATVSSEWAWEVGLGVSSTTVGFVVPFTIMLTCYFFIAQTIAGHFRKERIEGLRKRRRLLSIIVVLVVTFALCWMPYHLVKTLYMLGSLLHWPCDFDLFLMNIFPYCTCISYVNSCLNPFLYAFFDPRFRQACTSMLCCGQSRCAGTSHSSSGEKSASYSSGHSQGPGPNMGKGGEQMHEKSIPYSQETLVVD

B1: pE-R-P-R-L-a-H-K-G-P-nle-F-OH (peptide)
peptide: [pGlu]RPRL[dA]HKGP[dNle]F-OH
SMILES: CCCC[C@@H](NC(=O)[C@@H]1CCCN1C(=O)CNC(=O)[C@H](CCCCN)NC(=O)[C@H](Cc1c[nH]cn1)NC(=O)[C@@H](C)NC(=O)[C@H](CC(C)C)NC(=O)[C@H](CCCNC(=N)N)NC(=O)[C@@H]1CCCN1C(=O)[C@H](CCCNC(=N)N)NC(=O)[C@@H]1CCC(=O)N1)C(=O)N[C@@H](Cc1ccccc1)C(=O)O
B2: pE-R-P-R-(D-Leu)-S-a-K-G-P-nle-a-f-OH (peptide)
peptide: [pGlu]RPR[dL]S[dA]KGP[dNle][dA][dF]-OH
SMILES: CCCC[C@@H](NC(=O)[C@@H]1CCCN1C(=O)CNC(=O)[C@H](CCCCN)NC(=O)[C@@H](C)NC(=O)[C@H](CO)NC(=O)[C@@H](CC(C)C)NC(=O)[C@H](CCCNC(=N)N)NC(=O)[C@@H]1CCCN1C(=O)[C@H](CCCNC(=N)N)NC(=O)[C@@H]1CCC(=O)N1)C(=O)N[C@H](C)C(=O)N[C@H](Cc1ccccc1)C(=O)O
B3: pE-R-P-R-L-a-H-K-G-P-nle-e-f-OH (peptide)
peptide: [pGlu]RPRL[dA]HKGP[dNle][dE][dF]-OH
SMILES: CCCC[C@@H](NC(=O)[C@@H]1CCCN1C(=O)CNC(=O)[C@H](CCCCN)NC(=O)[C@H](Cc1c[nH]cn1)NC(=O)[C@@H](C)NC(=O)[C@H](CC(C)C)NC(=O)[C@H](CCCNC(=N)N)NC(=O)[C@@H]1CCCN1C(=O)[C@H](CCCNC(=N)N)NC(=O)[C@@H]1CCC(=O)N1)C(=O)N[C@H](CCC(=O)O)C(=O)N[C@H](Cc1ccccc1)C(=O)O
B4: pE-R-P-R-L-a-H-K-G-P-nle-a-y-OH (peptide)
peptide: [pGlu]RPRL[dA]HKGP[dNle][dA][dY]-OH
SMILES: CCCC[C@@H](NC(=O)[C@@H]1CCCN1C(=O)CNC(=O)[C@H](CCCCN)NC(=O)[C@H](Cc1c[nH]cn1)NC(=O)[C@@H](C)NC(=O)[C@H](CC(C)C)NC(=O)[C@H](CCCNC(=N)N)NC(=O)[C@@H]1CCCN1C(=O)[C@H](CCCNC(=N)N)NC(=O)[C@@H]1CCC(=O)N1)C(=O)N[C@H](C)C(=O)N[C@H](Cc1ccc(O)cc1)C(=O)O
B5: pE-R-P-R-L-a-H-K-G-P-nle-r-f-OH (peptide)
peptide: [pGlu]RPRL[dA]HKGP[dNle][dR][dF]-OH
SMILES: CCCC[C@@H](NC(=O)[C@@H]1CCCN1C(=O)CNC(=O)[C@H](CCCCN)NC(=O)[C@H](Cc1c[nH]cn1)NC(=O)[C@@H](C)NC(=O)[C@H](CC(C)C)NC(=O)[C@H](CCCNC(=N)N)NC(=O)[C@@H]1CCCN1C(=O)[C@H](CCCNC(=N)N)NC(=O)[C@@H]1CCC(=O)N1)C(=O)N[C@H](CCCNC(=N)N)C(=O)N[C@H](Cc1ccccc1)C(=O)O
B6: pE-R-P-R-L-a-H-K-G-P-nle-a-d-OH (peptide)
peptide: [pGlu]RPRL[dA]HKGP[dNle][dA][dD]-OH
SMILES: CCCC[C@@H](NC(=O)[C@@H]1CCCN1C(=O)CNC(=O)[C@H](CCCCN)NC(=O)[C@H](Cc1c[nH]cn1)NC(=O)[C@@H](C)NC(=O)[C@H](CC(C)C)NC(=O)[C@H](CCCNC(=N)N)NC(=O)[C@@H]1CCCN1C(=O)[C@H](CCCNC(=N)N)NC(=O)[C@@H]1CCC(=O)N1)C(=O)N[C@H](C)C(=O)N[C@H](CC(=O)O)C(=O)O
B7: pE-R-P-R-L-a-F-K-G-P-nle-a-f-OH (peptide)
peptide: [pGlu]RPRL[dA]FKGP[dNle][dA][dF]-OH
SMILES: CCCC[C@@H](NC(=O)[C@@H]1CCCN1C(=O)CNC(=O)[C@H](CCCCN)NC(=O)[C@H](Cc1ccccc1)NC(=O)[C@@H](C)NC(=O)[C@H](CC(C)C)NC(=O)[C@H](CCCNC(=N)N)NC(=O)[C@@H]1CCCN1C(=O)[C@H](CCCNC(=N)N)NC(=O)[C@@H]1CCC(=O)N1)C(=O)N[C@H](C)C(=O)N[C@H](Cc1ccccc1)C(=O)O

Target: T1, APJ receptor
Test: cell-based or functional assay

| hAPJ Ca^2+ Flux EC50 | Binder |
| --- | --- |
| 66.5 nM | B1 |
| 386 nM | B2 |
| 170 nM | B3 |
| 0.9 nM | B4 |
| 922 nM | B5 |
| 86.8 nM | B6 |
| 3.1 nM | B7 |
